Where a chain is given by its changes, count along the chain named.
T1: Avena sativa phytochrome A, full-length wild type (Avena sativa, UniProt P06593 1-1129, phycocyanobilin chromophore assembled (chromophore-binding site C322))
T1 construct: Avena sativa (oat) phytochrome A, full-length gene AsPHYA; 1129 residues by the printed construct limits (66-1129aa); Used as Pr (far-red irradiated) and Pfr (red irradiated) forms; also called AsphyA; FL-AsphyA; source: phycocyanobilin added in vitro
T1 sequence (looked up): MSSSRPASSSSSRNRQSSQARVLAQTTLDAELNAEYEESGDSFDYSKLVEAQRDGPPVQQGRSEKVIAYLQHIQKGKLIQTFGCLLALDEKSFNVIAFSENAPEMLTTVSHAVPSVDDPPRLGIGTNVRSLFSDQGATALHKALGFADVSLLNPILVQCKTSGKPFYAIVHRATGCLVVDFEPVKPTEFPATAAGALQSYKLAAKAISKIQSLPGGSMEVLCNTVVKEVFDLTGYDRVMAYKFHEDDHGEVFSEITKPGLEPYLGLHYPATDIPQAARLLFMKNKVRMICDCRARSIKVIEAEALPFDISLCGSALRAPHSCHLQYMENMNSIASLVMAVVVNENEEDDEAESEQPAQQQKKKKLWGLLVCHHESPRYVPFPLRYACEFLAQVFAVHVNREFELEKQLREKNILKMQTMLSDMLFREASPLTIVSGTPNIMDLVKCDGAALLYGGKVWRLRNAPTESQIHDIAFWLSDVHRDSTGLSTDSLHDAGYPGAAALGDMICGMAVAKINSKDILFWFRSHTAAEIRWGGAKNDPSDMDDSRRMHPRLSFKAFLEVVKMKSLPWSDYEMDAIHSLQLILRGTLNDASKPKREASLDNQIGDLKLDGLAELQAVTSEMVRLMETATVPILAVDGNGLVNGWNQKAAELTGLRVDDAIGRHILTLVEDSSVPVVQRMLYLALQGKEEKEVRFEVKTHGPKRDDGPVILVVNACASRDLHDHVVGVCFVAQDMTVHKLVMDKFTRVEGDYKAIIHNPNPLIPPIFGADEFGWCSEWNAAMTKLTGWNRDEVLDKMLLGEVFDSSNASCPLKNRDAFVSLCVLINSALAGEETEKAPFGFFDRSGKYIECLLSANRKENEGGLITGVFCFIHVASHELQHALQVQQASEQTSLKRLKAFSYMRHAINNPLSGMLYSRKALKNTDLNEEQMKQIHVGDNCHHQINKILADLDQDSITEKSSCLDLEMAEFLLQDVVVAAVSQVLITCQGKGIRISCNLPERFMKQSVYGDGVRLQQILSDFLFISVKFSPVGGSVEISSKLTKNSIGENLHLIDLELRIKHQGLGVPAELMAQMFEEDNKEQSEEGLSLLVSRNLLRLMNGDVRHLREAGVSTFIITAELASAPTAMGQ

T2: AsphyA D422R, full length (Avena sativa, UniProt P06593 1-1129, D422R, phycocyanobilin chromophore assembled)
T2 construct: Avena sativa phytochrome A, full length, with D422R; source: phycocyanobilin added in vitro
T2 sequence (looked up): T1 sequence (looked up) with D422R

B1: GST/strep-fused FHL (natural protein, UniProt A8MR65 1-201, looked up)
chain: MDDADKSCSPSLDHSDINDPMIVAVESLDTSKKRKLHAEESDLLPLPKHFCSEHQASLVNSSCPSSVIDYAECSYAMENTKTSDEASSSASFTGPSLYMFKDSIYSTGSSSSGYAATSSIEQCFSKVDHKTQEDTQDFTHMEFIYHDSEFAVEDLQEVLNPVESYILSSARWSVSNQDSKEATTKPTIDQEFEQYFSTLMM
notes: FHL, which with FHY1 takes part in the nuclear localization of phyA; not shown: GST, N-terminal, kept
B2: GST/strep-fused FHY1 (far-red elongated hypocotyl 1) (natural protein, UniProt Q8S4Q6 1-202, looked up)
chain: MPEVEVDNNNEKPSEINSFHHMIISSSKNVLKMEEVEVSKKRKFQTDQSDELSLLPLSKHTCFANVACSENTNGNSEIDTEYSMSSYVNSTTSMECNNDIEMKEESSGSCGEDKMISFESHLDYIYGTQNLEDFSEKVIENILYLDEQEEEEEDAKGCSSNAAKFVLSSGRWTVNQDDSTLHETKKPTIDQEFEQYFSTLML
notes: FHY1 (far-red elongated hypocotyl 1); not shown: GST, N-terminal, kept
B3: GST/strep-fused PIF3 (natural protein, UniProt O80536 1-524, looked up)
chain: MPLFELFRLTKAKLESAQDRNPSPPVDEVVELVWENGQISTQSQSSRSRNIPPPQANSSRAREIGNGSKTTMVDEIPMSVPSLMTGLSQDDDFVPWLNHHPSLDGYCSDFLRDVSSPVTVNEQESDMAVNQTAFPLFQRRKDGNESAPAASSSQYNGFQSHSLYGSDRARDLPSQQTNPDRFTQTQEPLITSNKPSLVNFSHFLRPATFAKTTNNNLHDTKEKSPQSPPNVFQTRVLGAKDSEDKVLNESVASATPKDNQKACLISEDSCRKDQESEKAVVCSSVGSGNSLDGPSESPSLSLKRKHSNIQDIDCHSEDVEEESGDGRKEAGPSRTGLGSKRSRSAEVHNLSERRRRDRINEKMRALQELIPNCNKVDKASMLDEAIEYLKSLQLQVQIMSMASGYYLPPAVMFPPGMGHYPAAAAAMAMGMGMPYAMGLPDLSRGGSSVNHGPQFQVSGMQQQPVAMGIPRVSGGGIFAGSSTIGNGSTRDLSGSKDQTTTNNNSNLKPIKRKQGSSDQFCGSS
notes: Probably Arabidopsis PIF3, as PIF1 and PIF4 are called Arabidopsis; not shown: GST, N-terminal, kept

The binders below were run against T1, Avena sativa phytochrome A, full-length … (assay: pull-down; GST/strep-fused interacting protein (1.0 μg) held on glutathione resin, phytochrome (1.0 μg) in solution, Pr and Pfr forms both tested; 60 min at 4 °C in pull-down buffer (100 mM Tris-HCl pH 7.8, 1 mM EDTA, 150 mM NaCl, 100 μg/ml BSA); western blot with oat22 and anti-GST). Details: both partners purified.

binding result | Binder
binds | B1
binds | B2
binds | B3

What follows are binders tested against T2, AsphyA D422R, full length in the same assay as above. Details: both partners purified.

binding result | Binder
binds | B1
binds | B2
binds | B3

Reference: article PMC4869175, “Evidence that phytochrome functions as a protein kinase in plant light signalling” (Nature Communications, 2016)
